Patent US20120077210A1 (COMMONWEALTH SCIENTIFIC AND INDUSTRIAL RESEARCH ORGANISATION, published 2012)

Target: T1, Odr10 labelled with GFP2 at the C-terminus (C. elegans)
T1 construct: Fusion protein expressed in S. cerevisiae Invsc1; Assayed in living yeast cells (BRET2) and as digitonin-solubilised crude membrane (co-immunoprecipitation); also called odr-10-GFP2; Odr10-GFP2
Assay: co-immunoprecipitation with anti-GFP antibody from a mixture of solubilised membranes that expressed each fusion separately (control)
Experimental: Membrane protein solubilisation and immunoprecipitation procedures were modified according to the method described by Ayoub et al. (2002). Crude membrane was solubilised with 0.5% digitonin (Sigma) and this mixture was stirred for 3 h at 4° C. Non-solubilised membrane proteins were removed by centrifugation at 18,000×g for 30 mins at 4° C. The digitonin concentration was adjusted to 0.2% using cold Buffer B and the polyclonal anti-GFP antibodies (Sapphire Bioscience, Cat No 120-29000) were added to a final dilution of 1:1000. Immune complex formation was allowed to proceed for 12 h at 4° C. with gentle agitation and Protein A-agarose suspension (Sigma) was added to a final volume of 1:10 (agarose suspension:sample) for incubation for another 6 h with gentle agitation at 4° C. After centrifugation for 1 min at 5000×g, supernatant was decanted and the agarose beads washed five times with 0.5 ml of cold Buffer C (Buffer B+0.2% digitonin). Precipitates were analysed by assessing luciferase activity in a luminometer (BMGLabtech) using coelenterazine as substrate (Biosynth AG, Switzerland).
Oligomerisation of Odr-10 in the living yeast cells was confirmed by the pairwise expression of receptor-Rluc and -GFP² fusion, followed by precipitation using anti-green fluorescence protein antibodies and measuring co-immunoprecipitated luciferase activity. […]

B1: Odr10 labelled with Rluc at the C-terminus (receptor)
chain: MSGELWITLVDTADIVGVTLTFCVNIVLLGLLKTRGKNLGTYKYLMAFFSVFSIFYAIIEFILRPIMHIENTTFFLISRKRFNYSTKLGKINSAFYCACFATSFVVSGVHFVYRYFATCKPNLLRLFNLPTLLLWPLGCSVPVTMWASVSYFLYPDTEYTEAAVTNVLNNHYNWIKKENVSYIAYVYYQYENGVRHIYLKNLLGCFVHYFVMSMTFVVMFYCGYATWKTMNEHKDVSDRTRALQKQLFKALVLQTLIPTIFMYAPTGVMFIAPFFDVNLNANANFIVFCSFLYPGLDPLILILIIRDFRRTIFNFLCGKKNSVDESRSTTRANLSQVPTMTSKVYDPEQRKRMITGPQWWARCKQMNVLDSFINYYDSEKHAENAVIFLHGNAASSYLWRHVVPHIEPVARCIIPDLIGMGKSGKSGNGSYRLLDHYKYLTAWFELLNLPKKIIFVGHDWGACLAFHYSYEHQDKIKAIVHAESVVDVIESWDEWPDIEEDIALIKSEEGEKMVLENNFFVETMLPSKIMRKLEPEEFAAYLEPFKEKGEVRRPTLSWPREIPLVKGGKPDVVQIVRNYNAYLRASDDLPKMFIESDPGFFSNAIVEGAKKFPNTEFVKVKGLHFSQEDAPDEMGKYIKSFVERVLKNEQ
notes: Fusion protein expressed in S. cerevisiae Invsc1; Assayed in living yeast cells (BRET2) and as digitonin-solubilised crude membrane (co-immunoprecipitation); also called odr-10-Rluc; Odr10-Rluc
  luciferase activity recovered relative to co-expressed odr-10-GFP^2 and odr-10-Rluc: < 20%
